From patent US20260062456A1 (ALPINE IMMUNE SCIENCES, published 2026)
Changes are numbered by the printed parent chain. In names and notes the source's numbering stands. Values belong to the binder of their own block, whether it stands above or below them.

Tests used:
[1] = molecular target: T1, human PD-1 stably expressed on Jurkat/IL-2 reporter cells (Jurkat/PD-1 cells) (human, UniProt Q15116 25-288); test: flow cytometry, Jurkat/PD-1 cells
[2] = molecular target: human PD-1 stably expressed on Jurkat/IL-2 reporter cells (Jurkat/PD-1 cells) (human, UniProt Q15116 21-288); test: flow cytometry, Jurkat/PD-1 cells, 20 nM
Chain of human PD-1 stably expressed on Jurkat/IL-2 reporter cells (Jurkat/PD-1 cells) (human, UniProt Q15116 21-288) (Q15116 21-288): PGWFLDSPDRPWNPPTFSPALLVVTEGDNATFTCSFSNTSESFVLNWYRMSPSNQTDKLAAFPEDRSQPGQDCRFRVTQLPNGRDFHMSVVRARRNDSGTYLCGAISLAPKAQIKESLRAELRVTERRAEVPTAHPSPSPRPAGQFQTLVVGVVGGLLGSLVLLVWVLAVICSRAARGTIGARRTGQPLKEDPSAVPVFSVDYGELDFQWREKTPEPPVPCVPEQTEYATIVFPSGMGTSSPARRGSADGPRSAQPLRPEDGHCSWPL

[3] = molecular target: T1, human PD-1 stably expressed on …; test: cell-based or functional assay
[4] = molecular target: T2, human TIGIT stably expressed on Jurkat/IL-2 reporter cells (Jurkat/TIGIT cells) (human, UniProt Q495A1 22-244); test: cell-based or functional assay
T2 sequence (looked up): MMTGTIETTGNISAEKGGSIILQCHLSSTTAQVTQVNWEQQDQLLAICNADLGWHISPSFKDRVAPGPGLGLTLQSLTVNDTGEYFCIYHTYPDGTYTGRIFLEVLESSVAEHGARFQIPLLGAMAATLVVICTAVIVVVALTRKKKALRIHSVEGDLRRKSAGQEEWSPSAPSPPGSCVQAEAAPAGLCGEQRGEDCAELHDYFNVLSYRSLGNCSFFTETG

[5] = molecular target: T3, human TIGIT stably expressed on Jurkat/IL-2 reporter cells (Jurkat/TIGIT cells) (human, UniProt Q495A1 22-244); test: flow cytometry, Jurkat/TIGIT cells, 20 nM
T3 sequence: T2 sequence (looked up)

T1 sequence (Q15116 25-288): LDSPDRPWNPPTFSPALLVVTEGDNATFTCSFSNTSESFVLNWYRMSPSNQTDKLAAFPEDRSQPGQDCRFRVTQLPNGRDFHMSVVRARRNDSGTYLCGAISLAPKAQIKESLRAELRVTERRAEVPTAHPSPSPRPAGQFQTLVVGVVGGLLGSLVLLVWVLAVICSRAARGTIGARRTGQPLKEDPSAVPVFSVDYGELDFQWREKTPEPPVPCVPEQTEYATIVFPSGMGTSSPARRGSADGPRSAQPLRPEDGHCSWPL

Fold Increase over WT PD-L1 ECD-Fc [1]: 0.3 fold
MFI at 20 nM conc. [1]: 1350 MFI
B2: variant PD-L1 ECD-Fc N45D, T183A, T192S, R194G (Fc fusion, not shown: a dimerising Fc or GST)
chain: FTVTVPKDLYVVEYGSNMTIECKFPVEKQLDLAALIVYWEMEDKDIIQFVHGEEDLKVQHSSYRQRARLLKDQLSLGNAALQITDVKLQDAGVYRCMISYGGADYKRITVKVNAPYNKINQRILVVDPVTSEHELTCQAEGYPKAEVIWTSSDHQVLSGKTTTTNSKREEKLFNVTSTLRINATTNEIFYCSFGRLDPEENHTAELVIPELPLAHPPNER

Fold Increase over WT PD-L1 ECD-Fc [1]: 0.2 fold
MFI at 20 nM conc. [1]: 834 MFI
B3: variant PD-L1 ECD-Fc N45D, S99G, C137R, V207A (Fc fusion, not shown: a dimerising Fc or GST)
chain: B2 chain with S99G, C137R, A183T, S192T, G194R, V207A

Fold Increase over WT PD-L1 ECD-Fc [1]: 6.8 fold
MFI at 20 nM conc. [1]: 34200 MFI
B6: variant PD-L1 ECD-Fc N45D, V50A, I119T, K144E (Fc fusion, not shown: a dimerising Fc or GST)
chain: B2 chain with V50A, I119T, K144E, A183T, S192T, G194R

Fold Increase over WT PD-L1 ECD-Fc [1]: 26.7 fold
MFI at 20 nM conc. [1]: 134000 MFI
B7: variant PD-L1 ECD-Fc N45D, T163I, K167R, R195G (Fc fusion, not shown: a dimerising Fc or GST)
chain: B2 chain with T163I, K167R, A183T, S192T, G194R, R195G

MFI at 20 nM [2]: 511 MFI
B11: Wild-type CD155-ECD-Fc (Fc fusion, not shown: a dimerising Fc or GST)
chain: WPPPGTGDVVVQAPTQVPGFLGDSVTLPCYLQVPNMEVTHVSQLTWARHGESGSMAVFHQTQGPSYSESKRLEFVAARLGAELRNASLRMFGLRVEDEGNYTCLFVTFPQGSRSVDIWLRVLAKPQNTAEVQKVQLTGEPVPMARCVSTGGRPPAQITWHSDLGGMPNTSQVPGFLSGTVTVTSLWILVPSSQVDGKNVTCKVEHESFEKPQLLTVNLTVYYPPEVSISGYDNNWYLGQNEATLTCDARSNPEPTGYNWSTTMGPLPPFAVAQGAQLLIRPVDKPINTTLICNVTNALGARQAELTVQVKEGPPSEHSGISRN

Fold Increase Compared to non-stack variant CD155 IgV-Fc control [3]: 1.7 fold
Fold Increase Compared to non-stack variant PD-L1 IgV-Fc control [3]: 0.6 fold
Fold Increase Compared to variant PD-L1 IgV-Fc and variant CD155 IgV-Fc [3]: 0.8 fold
RLU [3]: 573 RLU
Fold Increase Compared to non-stack variant CD155 IgV-Fc control [4]: 1.7 fold
Fold Increase Compared to non-stack variant PD-L1 IgV-Fc control [4]: 0.6 fold
Fold Increase Compared to variant PD-L1 IgV-Fc and variant CD155 IgV-Fc [4]: 0.8 fold
RLU [4]: 573 RLU
B15: PD-L1/CD155 Stack 1: (CD155 IgV) (G4S)2 Fc (G4S)3 (PD-L1 IgV) (Fc fusion)
chain: WPPPGTGDVVVQAPTQVSGFLGDSVTLPCYLQVPNMEVTHVSQLTWARHGESGSMAVFHQTQGPWYAESKRLEFVAARLGAELRNASLRMFGLRVEDEGNYTCQFVTFPQRSRSVDIWLRVLGGGGSGGGGSEPKSSDKTHTCPPCPAPEAEGAPSVFLFPPKPKDTLMISRTPEVTCVVVDVSHEDPEVKFNWYVDGVEVHNAKTKPREEQYNSTYRVVSVLTVLHQDWLNGKEYKCKVSNKALPAPIEKTISKAKGQPREPQVYTLPPSRDELTKNQVSLTCLVKGFYPSDIAVEWESNGQPENNYKTTPPVLDSDGSFFLYSKLTVDKSRWQQGNVFSCSVMHEALHNHYTQKSLSLSPGKGGGGSGGGGSGGGGSFTVTVPKDLYVVEYGSNMTIECKFPVEKQLDLAALIVYWEMEGKDIIQFVHGEEDQKAQHSSYRQRARLLKDQLSLGNAALQITDVKLQDAGVYRCMISYGGGADYKRITVKVNA

MFI at 20 nM [2]: 61800 MFI
MFI at 20 nM [5]: 80700 MFI
B16: PD-L1/CD155 Stack 1 (Fc fusion)
chain: B15 chain

The remaining lines, values behind:

B1: variant PD-L1 ECD-Fc N45D, S75P, P198S (Fc fusion, not shown: a dimerising Fc or GST)
chain: B2 chain with S75P, A183T, S192T, G194R, P198S
Fold Increase over WT PD-L1 ECD-Fc [1]: 25.9 fold
MFI at 20 nM conc. [1]: 130000 MFI

B4: variant PD-L1 ECD-Fc V11E, N45D, T130A, P198T (Fc fusion, not shown: a dimerising Fc or GST)
chain: B2 chain with V11E, T130A, A183T, S192T, G194R, P198T
Fold Increase over WT PD-L1 ECD-Fc [1]: 27.4 fold
MFI at 20 nM conc. [1]: 137000 MFI

B5: variant PD-L1 ECD-Fc N45D, V50A, R195T (Fc fusion, not shown: a dimerising Fc or GST)
chain: B2 chain with V50A, A183T, S192T, G194R, R195T
Fold Increase over WT PD-L1 ECD-Fc [1]: 28.3 fold
MFI at 20 nM conc. [1]: 142000 MFI

B8: variant PD-L1 ECD-Fc N45D, V50A, L124S, K144E, L179P, R195G (Fc fusion, not shown: a dimerising Fc or GST)
chain: B2 chain with V50A, L124S, K144E, L179P, A183T, S192T, G194R, R195G
Fold Increase over WT PD-L1 ECD-Fc [1]: 3.6 fold
MFI at 20 nM conc. [1]: 18200 MFI

B9: variant PD-L1 ECD-Fc N45D, S131F, P198S (Fc fusion, not shown: a dimerising Fc or GST)
chain: B2 chain with S131F, A183T, S192T, G194R, P198S
Fold Increase over WT PD-L1 ECD-Fc [1]: 23.2 fold
MFI at 20 nM conc. [1]: 116000 MFI

B10: variant PD-L1 ECD-Fc N45D, V50A, I148V, R195G, N201D (Fc fusion, not shown: a dimerising Fc or GST)
chain: B2 chain with V50A, I148V, A183T, S192T, G194R, R195G, N201D
Fold Increase over WT PD-L1 ECD-Fc [1]: 26.2 fold
MFI at 20 nM conc. [1]: 131000 MFI

B12: PD-L1/CD155 Stack 2: (PD-L1 IgV) (G4S)2 Fc(G4S)3 (CD155 IgV) (Fc fusion)
chain: FTVTVPKDLYVVEYGSNMTIECKFPVEKQLDLAALIVYWEMEGKDIIQFVHGEEDQKAQHSSYRQRARLLKDQLSLGNAALQITDVKLQDAGVYRCMISYGGGADYKRITVKVNAGGGGSGGGGSEPKSSDKTHTCPPCPAPEAEGAPSVFLFPPKPKDTLMISRTPEVTCVVVDVSHEDPEVKFNWYVDGVEVHNAKTKPREEQYNSTYRVVSVLTVLHQDWLNGKEYKCKVSNKALPAPIEKTISKAKGQPREPQVYTLPPSRDELTKNQVSLTCLVKGFYPSDIAVEWESNGQPENNYKTTPPVLDSDGSFFLYSKLTVDKSRWQQGNVFSCSVMHEALHNHYTQKSLSLSPGKGGGGSGGGGSGGGGSWPPPGTGDVVVQAPTQVSGFLGDSVTLPCYLQVPNMEVTHVSQLTWARHGESGSMAVFHQTQGPWYAESKRLEFVAARLGAELRNASLRMFGLRVEDEGNYTCQFVTFPQRSRSVDIWLRVL
Fold Increase Compared to non-stack variant CD155 IgV-Fc control [3]: 2.8 fold
Fold Increase Compared to non-stack variant PD-L1 IgV-Fc control [3]: 1 fold
Fold Increase Compared to variant PD-L1 IgV-Fc and variant CD155 IgV-Fc [3]: 1.4 fold
RLU [3]: 962 RLU
Fold Increase Compared to non-stack variant CD155 IgV-Fc control [4]: 2.8 fold
Fold Increase Compared to non-stack variant PD-L1 IgV-Fc control [4]: 1 fold
Fold Increase Compared to variant PD-L1 IgV-Fc and variant CD155 IgV-Fc [4]: 1.4 fold
RLU [4]: 962 RLU

B13: PD-L1/CD155 Stack 4: (PD-L1 IgV) (G4S)3 (CD155 IgV) (G4S)2 Fc (Fc fusion)
chain: FTVTVPKDLYVVEYGSNMTIECKFPVEKQLDLAALIVYWEMEGKDIIQFVHGEEDQKAQHSSYRQRARLLKDQLSLGNAALQITDVKLQDAGVYRCMISYGGGADYKRITVKVNAGGGGSGGGGSGGGGSWPPPGTGDVVVQAPTQVSGFLGDSVTLPCYLQVPNMEVTHVSQLTWARHGESGSMAVFHQTQGPWYAESKRLEFVAARLGAELRNASLRMFGLRVEDEGNYTCQFVTFPQRSRSVDIWLRVLGGGGSGGGGSEPKSSDKTHTCPPCPAPEAEGAPSVFLFPPKPKDTLMISRTPEVTCVVVDVSHEDPEVKFNWYVDGVEVHNAKTKPREEQYNSTYRVVSVLTVLHQDWLNGKEYKCKVSNKALPAPIEKTISKAKGQPREPQVYTLPPSRDELTKNQVSLTCLVKGFYPSDIAVEWESNGQPENNYKTTPPVLDSDGSFFLYSKLTVDKSRWQQGNVFSCSVMHEALHNHYTQKSLSLSPGK
Fold Increase Compared to non-stack variant CD155 IgV-Fc control [3]: 5.6 fold
Fold Increase Compared to non-stack variant PD-L1 IgV-Fc control [3]: 2 fold
Fold Increase Compared to variant PD-L1 IgV-Fc and variant CD155 IgV-Fc [3]: 2.7 fold
RLU [3]: 1920 RLU
Fold Increase Compared to non-stack variant CD155 IgV-Fc control [4]: 5.6 fold
Fold Increase Compared to non-stack variant PD-L1 IgV-Fc control [4]: 2 fold
Fold Increase Compared to variant PD-L1 IgV-Fc and variant CD155 IgV-Fc [4]: 2.7 fold
RLU [4]: 1920 RLU

B14: PD-L1/CD155 Stack 3: (CD155 IgV) (G4S)3 (PD-L1 IgV) (G4S)2 Fc (Fc fusion)
chain: WPPPGTGDVVVQAPTQVSGFLGDSVTLPCYLQVPNMEVTHVSQLTWARHGESGSMAVFHQTQGPWYAESKRLEFVAARLGAELRNASLRMFGLRVEDEGNYTCQFVTFPQRSRSVDIWLRVLGGGGSGGGGSGGGGSFTVTVPKDLYVVEYGSNMTIECKFPVEKQLDLAALIVYWEMEGKDIIQFVHGEEDQKAQHSSYRQRARLLKDQLSLGNAALQITDVKLQDAGVYRCMISYGGGADYKRITVKVNAGGGGSGGGGSEPKSSDKTHTCPPCPAPEAEGAPSVFLFPPKPKDTLMISRTPEVTCVVVDVSHEDPEVKFNWYVDGVEVHNAKTKPREEQYNSTYRVVSVLTVLHQDWLNGKEYKCKVSNKALPAPIEKTISKAKGQPREPQVYTLPPSRDELTKNQVSLTCLVKGFYPSDIAVEWESNGQPENNYKTTPPVLDSDGSFFLYSKLTVDKSRWQQGNVFSCSVMHEALHNHYTQKSLSLSPGK
Fold Increase Compared to non-stack variant CD155 IgV-Fc control [3]: 1.3 fold
Fold Increase Compared to non-stack variant PD-L1 IgV-Fc control [3]: 0.5 fold
Fold Increase Compared to variant PD-L1 IgV-Fc and variant CD155 IgV-Fc [3]: 0.6 fold
RLU [3]: 434 RLU
Fold Increase Compared to non-stack variant CD155 IgV-Fc control [4]: 1.3 fold
Fold Increase Compared to non-stack variant PD-L1 IgV-Fc control [4]: 0.5 fold
Fold Increase Compared to variant PD-L1 IgV-Fc and variant CD155 IgV-Fc [4]: 0.6 fold
RLU [4]: 434 RLU
